In patent US10556007B2, “Antibody which binds Lrg1 and methods of use” (UCL Business PLC, priority 2015, dated 2020):
“Also recorded” adds a separate entry of the source.

What was measured:
[1] = system: laser-induced choroidal neovascularisation; assay: Rat laser-induced choroidal neovascularisation (CNV); type: in vivo; conditions: Long Evans rats, intravitreal at time of lasering, analysis 7 days later
Protocol: Several antibodies were tested for their ability to block CNV in the rat. In these experiments mAbs were injected intravitreally at the time of lasering, with eyes being retrieved for analysis 7 days later (FIG. 5). Long Evans rats, aged 6-8 weeks, each received 5 retinal laser burns at the same time as intravitreal delivery of […] mAb or control IgG into both eyes. Four rats were used for each mAb, so a total of 40 lesions were analysed by staining for collagen IV and the neovascular areas quantified. […] Avastin was also tested in the rat laser model (data not shown) and observed to have no effect, consistent with Avastin having low affinity for rat VEGF.

[2] = system: laser-induced choroidal neovascularisation; assay: Mouse model of laser-induced CNV; type: in vivo; conditions: for lesion size: C57B6 mice, intravitreal
Protocol: The images on the left of FIG. 17A show a typical wild-type mouse retina under normal illumination (Fundus), and under fluorescence illumination, 7 days after three laser burns were administered to the retinal pigment epithelium. Fluorescence images were captured ˜60 seconds after systemic dosing with fluorescein (Early Phase FFA) and again after ˜7 minutes (Late Phase FFA). At the time of lasering, animals received intraocular injections of either control IgG (top panels) or 15C4 (lower panels). The Early Phase FFA images show the size of the lesions, and the Late Phase images show leakage of fluorescein into the retina. Lesion sizes were quantified for 15C4 at 2.5, 5 and 10 μg doses, and also Eylea at 2 and 4 μg, and the % blocking is a measure of average lesion size relative to that observed in the controls. On the far right a similar analysis was undertaken using Eylea and Magacizumab (both at 2.1 μg) alone and in combination.
Wild type C57B6 mice were anaesthetized and received intravitreal injections of various doses of either Magacizumab, Eylea, or both in combination, immediately following laser photocoagulation of the retinal pigment epithelium. After 7 days (to allow the vascular lesions to form) the mice were again anaesthetized and examined by fluorescein angiography (FFA). Early phase FFA images (taken after 90 s) show the degree of vascularization at the lesion site. Measurement of the lesion area in the early phase images permits quantification in which percentage lesion size is normalized against the IgG4 control (FIG. 18).

[3] = Analytical size exclusion chromatography; type: physicochemical
[4] = system: healthy donor T cells; assay: EpiScreen T cell proliferative assay; type: cell-based, human; conditions: 20 donor T cell samples, days 5-8
Source text: FIG. 21D—Summary of healthy donor T cell proliferative responses. Positive T cell responses during EpiScreen™ time course days 5-8 are shown (P). Samples inducing proliferation with SI ≥2.00 that were significant (p<0.05) were considered positive (borderline responses* SI≥1.90, p<0.05 are also shown). The frequency of positive T cell responses for proliferation are shown as a percentage at the bottom of the columns.

[5] = molecular target: T1, human Lrg1 (Homo sapiens, UniProt P02750); assay: Anti-human Lrg1 competition ELISA against biotinylated mouse 15C4; type: binding; set-up: made in house; conditions: competition with biotinylated mouse 15C4
T1 sequence (P02750 36-347): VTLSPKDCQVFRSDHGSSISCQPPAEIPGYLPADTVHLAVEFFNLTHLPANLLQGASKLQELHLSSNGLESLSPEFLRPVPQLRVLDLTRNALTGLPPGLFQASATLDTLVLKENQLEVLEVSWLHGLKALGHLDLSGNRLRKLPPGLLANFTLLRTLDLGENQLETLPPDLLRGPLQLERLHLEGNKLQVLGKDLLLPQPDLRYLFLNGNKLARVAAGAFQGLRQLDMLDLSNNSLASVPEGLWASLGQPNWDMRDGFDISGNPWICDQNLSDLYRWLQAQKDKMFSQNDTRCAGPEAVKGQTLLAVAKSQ
Protocol: The chimeric antibody was expressed transiently in HEK EBNA cells and stably in NS0 mouse myeloma cells, purified and tested for binding to human Lrg1 in a competition ELISA assay. A Nunc Immuno MaxiSorp 96 well flat bottom microtitre plate (Fisher, cat. no. DIS-971-030J) was pre-coated with 0.2 μg/ml hLrg1 (supplied by UCL) overnight in 0.1 N Sodium Carbonate buffer (NaHCO3) at +4° C. The following day the plate was washed 1× with PBST and blocked with 3% BSA/PBS for 1 hour at room temperature. After washing 3× with PBST, a three-fold dilution series of chimeric, mouse or control antibodies from 100 μg/ml to 0.13 μg/ml was premixed with a constant concentration of biotinylated mouse 15C4 (0.4 μg/ml, final concentration), added to the plates and incubated for 1.5 hours at room temperature. Following 3×PBST washes, the binding of the biotinylated mAb was detected with streptavidin-HRP (Sigma, cat. no. 55512) and TMB substrate (Invitrogen, cat. no. 00-2023). The reaction was stopped with 3 M HCl, absorbance read at 450 nm on a Dynex Technologies MRX TC II plate reader and the binding curves plotted.
The properties of Magacizumab were investigated. […] An anti-hLrg1 competition ELISA was carried out. […] Bound biotinylated mouse 15C4 was detected using streptavidin-peroxidase and TMB substrate. […]

Avastin: anti-VEGF antibody Bevacizumab (Avastin) [reference compound]
blockade of angiogenesis (CNV) [1]: no effect

B1: Magacizumab: humanised 15C4 antibody comprising heavy chain variable regions VH5 and kappa light chain variable regions VK3 (antibody, V domains shown)
VH: QVQLVQSGAEVKKPGSSVKVSCKASGYTFSGYWMNWVRQAPGQGLEWIGQIYPGDGDTNYNGKFKGRVTITADKSTSTAYMELSSLRSEDTAVYYCARSITTVVLDYWGQGTTVTVSS
VL: DIVLTQSPDSLAVSLGERATISCRASQSVSTSGYSFMHWYQQKPGQPPKLLIKYASNLESGVPARFSGSGSGTDFTLTISSLQPEDFATYYCQHSWEMPLTFGQGTKLEIK
lesion size ([2]; alone, vs IgG4 control): significant reduction in lesion size | lesion size ([2]; in combination with Eylea, vs control): significant reduction in lesion size | lesion formation ([2]; intraocular injection at lasering, FFA after 7 days): Dose-Dependent Inhibition of Lesion Formation; also recorded: inhibit lesion formation with similar efficacy to the VEGF blocker Eylea | aggregation by analytical size exclusion chromatography [3]: single peak and no aggregates | T cell proliferative response [4]: failed to elicit a proliferative response in any of the 20 donor T cell samples

B2: chimeric: murine 15C4 variable regions combined with human IgG4 (S241P) heavy chain and Kappa light chain constant regions (antibody, V domains shown)
VH: QVQLQQSGDEVVRPGSSVKISCKASGYTFSGYWMNWVKQRPGQGLQWIGQIYPGDGDTNYNGKFKGKATLTADKSSSTAYMQLSTLTSEDSAIYFCARSITTVVLDYWGQGTTLTVSS
VL: DIVLTQSPVSLAVSLGQRATISCRASQSVSTSGYSFMHWYQQKPGQPPKFLIKYASNLESGVPARFSGSGSGTDFTLNIHPVEEEDTATYYCQHSWEMPLTFGAGTKLELK
binding profile / competition for binding to human Lrg1 [5]: very similar binding profile to mouse 15C4
